According to patent US20210330740A1 (RUN X, published 2021):

Target: T1, BRD2 (Bromodomain-containing protein 2) (UniProt P25440 1-801, limits assumed)
T1 construct: also called Brd2 protein
Test: co-immunoprecipitation and immunoblotting, time course
Protocol: Particularly, the antibody targeting RUNX3 (5G4) (Cat #ab40278) was obtained from Abcam (Cambridge, UK), and the antibody was diluted 1:3000. BRD2 (M01; 1:1000; Cat #H00006046-M01, Abnova, Taipei City, Taiwan) was used for immunoblotting and immunoprecipitation. Transient transfection was performed in all cell lines using lipofectamine plus reagent and lipofectamine (Invitrogen). Cell lysates were incubated with an appropriate monoclonal or polyclonal antibody (2 μg of antibody/500 μg of lysate sample) at 4° C. for 3 hours, followed by incubation with protein G-Sepharose beads (Amersham Pharmacia Biotech, Piscataway, N.J., USA). For the detection of endogenous proteins at 4° C. for 1 hour, the lysate was incubated with an appropriate monoclonal or polyclonal antibody (1:1000˜1:3000) at 4° C. for 6 to 12 hours, and then protein G-Sepharose beads (Amersham Pharmacia Biotech) were […] at 4° C. for 3 hours. The immune precipitate was digested on SDS-polyacrylamide gel electrophoresis (SDS-PAGE) gel and transferred to a PVDF membrane (Millipore, Billerica, Mass., USA). The membrane was blocked, immunoblotted with an appropriate antibody, treated with ECL solution (Amersham Pharmacia Biotech), and visualized in Amersham™ Imager 600 (GE Healthcare, Chicago, Ill., USA).

T1 sequence (P25440 whole entry): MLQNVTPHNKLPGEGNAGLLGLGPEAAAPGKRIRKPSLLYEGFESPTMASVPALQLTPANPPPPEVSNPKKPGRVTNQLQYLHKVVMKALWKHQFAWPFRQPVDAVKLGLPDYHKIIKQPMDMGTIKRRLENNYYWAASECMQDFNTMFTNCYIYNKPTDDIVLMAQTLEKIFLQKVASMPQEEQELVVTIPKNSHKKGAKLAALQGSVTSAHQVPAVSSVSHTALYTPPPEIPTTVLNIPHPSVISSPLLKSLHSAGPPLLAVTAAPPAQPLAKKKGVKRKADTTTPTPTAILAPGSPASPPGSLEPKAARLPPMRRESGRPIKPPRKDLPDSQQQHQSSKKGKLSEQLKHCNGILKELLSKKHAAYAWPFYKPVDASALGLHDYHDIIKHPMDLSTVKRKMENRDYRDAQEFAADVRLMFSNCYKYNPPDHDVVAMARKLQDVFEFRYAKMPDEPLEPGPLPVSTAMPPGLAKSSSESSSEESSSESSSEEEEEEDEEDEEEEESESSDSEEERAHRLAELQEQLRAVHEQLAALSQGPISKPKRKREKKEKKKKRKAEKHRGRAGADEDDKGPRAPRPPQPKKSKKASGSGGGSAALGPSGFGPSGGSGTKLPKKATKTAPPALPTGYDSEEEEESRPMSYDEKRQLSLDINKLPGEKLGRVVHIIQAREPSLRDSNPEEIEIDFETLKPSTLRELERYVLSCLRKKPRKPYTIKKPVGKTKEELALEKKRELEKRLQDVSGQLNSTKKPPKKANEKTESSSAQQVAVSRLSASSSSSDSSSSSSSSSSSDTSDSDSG

- complex maintenance activity, fold against wild-type Runx3: ≥ 10 times
B1: modified protein in which the 356th serine of Runx3 is substituted with alanine (other, UniProt Q13761 1-415, looked up)
chain: MRIPVDPSTSRRFTPPSPAFPCGGGGGKMGENSGALSAQAAVGPGGRARPEVRSMVDVLADHAGELVRTDSPNFLCSVLPSHWRCNKTLPVAFKVVALGDVPDGTVVTVMAGNDENYSAELRNASAVMKNQVARFNDLRFVGRSGRGKSFTLTITVFTNPTQVATYHRAIKVTVDGPREPRRHRQKLEDQTKPFPDRFGDLERLRMRVTPSTPSPRGSLSTTSHFSSQPQTPIQGTSELNPFSDPRQFDRSFPTLPTLTESRFPDPRMHYPGAMSAAFPYSATPSGTSISSLSVAGMPATSRFHHTYLPPPYPGAPQNQSGPFQANPSPYHLYYGTSSGSYQFSMVAGSSSGGDRAPTRMLASCTSSAASVAAGNLMNPSLGGQSDGVEADGSHSNSPTALSTPGRMDEAVWRPY
notes: also called Runx3 S356A; RUNX3 S356A
